To fix the notation:
B3: SIN3B isoform 2 (natural protein, human, UniProt O75182-2 1-1130, looked up)
chain: MAHAGGGSGGSGAGGPAGRGLSGARWGRSGSAGHEKLPVHVEDALTYLDQVKIRFGSDPATYNGFLEIMKEFKSQSIDTPGVIRRVSQLFHEHPDLIVGFNAFLPLGYRIDIPKNGKLNIQSPLTSQENSHNHGDGAEDFKQQVPYKEDKPQVPLESDSVEFNNAISYVNKIKTRFLDHPEIYRSFLEILHTYQKEQLNTRGRPFRGMSEEEVFTEVANLFRGQEDLLSEFGQFLPEAKRSLFTGNGPCEMHSVQKNEHDKTPEHSRKRSRPSLLRPVSAPAKKKMKLRGTKDLSIAAVGKYGTLQEFSFFDKVRRVLKSQEVYENFLRCIALFNQELVSGSELLQLVSPFLGKFPELFAQFKSFLGVKELSFAPPMSDRSGDGISREIDYASCKRIGSSYRALPKTYQQPKCSGRTAICKEVLNDTWVSFPSWSEDSTFVSSKKTPYEEQLHRCEDERFELDVVLETNLATIRVLESVQKKLSRMAPEDQEKFRLDDSLGGTSEVIQRRAIYRIYGDKAPEIIESLKKNPVTAVPVVLKRLKAKEEEWREAQQGFNKIWREQYEKAYLKSLDHQAVNFKQNDTKALRSKSLLNEIESVYDEHQEQHSEGRSAPSSEPHLIFVYEDRQILEDAAALISYYVKRQPAIQKEDQGTIHQLLHQFVPSLFFSQQLDLGASEESADEDRDSPQGQTTDPSERKKPAPGPHSSPPEEKGAFGDAPATEQPPLPPPAPHKPLDDVYSLFFANNNWYFFLRLHQTLCSRLLKIYRQAQKQLLEYRTEKEREKLLCEGRREKGSDPAMELRLKQPSEVELEEYYPAFLDMVRSLLEGSIDPTQYEDTLREMFTIHAYVGFTMDKLVQNIARQLHHLVSDDVCLKVVELYLNEKKRGAAGGNLSSRCVRAARETSYQWKAERCMADENCFKVMFLQRKGQVIMTIELLDTEEAQTEDPVEVQHLARYVEQYVGTEGASSSPTEGFLLKPVFLQRNLKKFRRRWQSEQARALRGEARSSWKRLVGVESACDVDCRFKLSTHKMVFIVNSEDYMYRRGTLCRAKQVQPLVLLRHHQHFEEWHSRWLEDNVTVEAASLVQDWLMGEEDEDMVPCKTLCETVHVHGLPVTRYRVQYSRRPASP
notes: SIN3B isoform 2, human, UniProt O75182-2; codon-optimised cDNA; numbers count on: isoform 2 (O75182-2); Tag removed with 3C protease; RbBP7 was co-expressed to keep SIN3B soluble; also called SIN3 scaffold subunit; corepressor SIN3B; source: High Five insect cells, co-infected with baculoviruses of each subunit; co-purified (Strep-Tactin, GSTrap, Superose 6 SEC); not shown: StrepII, C-terminal, …

What all share (details): both partners purified
The target in experiment [1] is T1, HDAC2 (human, UniProt Q92769 1-488).
T1 construct: HDAC2, human; codon-optimised cDNA; No tag is named for HDAC2; also called histone deacetylase 2; catalytic HDAC module; source: High Five insect cells, co-infected with baculoviruses of each subunit; co-purified (Strep-Tactin, GSTrap, Superose 6 SEC)
Kind of experiment: cryo-EM structure; apo SIN3B complex; SIN3B^FL sample (full-length PHF12, 3.4 Å), SIN3B complex sample (PHF12 1-502, 3.7 Å) and SIN3B^core map (2.8 Å); subunits co-expressed with RbBP7 and co-purified, GraFix (glutaraldehyde) treated.

Experiment [2] has as its target T2, MORF4L1 (mortality factor 4-like 1) (human, UniProt Q9UBU8 1-362).
T2 construct: MORF4L1, human; codon-optimised cDNA; Tag removed with 3C protease; also called MRG and chromo domain-containing protein; source: High Five insect cells, co-infected with baculoviruses of each subunit; co-purified (Strep-Tactin, GSTrap, Superose 6 SEC); not shown: GST, N-terminal, cleaved
The experiment is described as above.

The target of experiment [3] is B3. Described as above.
Experiment [4] deals with B3. The experiment in a line: cross-linking; XL-MS: freshly purified SIN3B complex at 1.7 μM with DSSO, on ice for 10 min, quenched with Tris pH 8, trypsin digest, LC-MS.

T1 sequence (Q92769 whole entry): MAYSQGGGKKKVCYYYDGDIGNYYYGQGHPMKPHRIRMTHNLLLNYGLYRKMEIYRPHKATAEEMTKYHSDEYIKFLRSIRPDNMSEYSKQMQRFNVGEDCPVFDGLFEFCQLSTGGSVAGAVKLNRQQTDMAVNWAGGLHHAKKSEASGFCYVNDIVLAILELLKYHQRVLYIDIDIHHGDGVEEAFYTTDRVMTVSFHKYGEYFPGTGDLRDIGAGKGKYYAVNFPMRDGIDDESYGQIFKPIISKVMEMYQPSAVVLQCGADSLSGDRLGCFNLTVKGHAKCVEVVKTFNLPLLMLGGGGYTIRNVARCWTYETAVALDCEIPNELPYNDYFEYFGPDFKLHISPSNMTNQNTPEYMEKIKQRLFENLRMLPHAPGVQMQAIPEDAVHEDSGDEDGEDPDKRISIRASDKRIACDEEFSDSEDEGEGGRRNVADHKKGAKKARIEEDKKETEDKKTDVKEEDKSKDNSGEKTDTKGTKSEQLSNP
T2 sequence (Q9UBU8 whole entry, the tested form may be a part): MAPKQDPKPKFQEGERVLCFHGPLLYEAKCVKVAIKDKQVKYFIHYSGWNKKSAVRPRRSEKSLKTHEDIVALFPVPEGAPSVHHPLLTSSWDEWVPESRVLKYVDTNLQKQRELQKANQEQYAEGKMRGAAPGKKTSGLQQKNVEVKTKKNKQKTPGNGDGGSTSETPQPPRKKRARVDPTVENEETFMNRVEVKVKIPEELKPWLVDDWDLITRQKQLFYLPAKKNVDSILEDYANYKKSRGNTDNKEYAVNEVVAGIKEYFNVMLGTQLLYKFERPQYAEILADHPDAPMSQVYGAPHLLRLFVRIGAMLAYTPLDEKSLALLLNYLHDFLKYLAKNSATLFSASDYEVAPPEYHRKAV

B1: PHF12 (full-length) (natural protein, human, UniProt Q96QT6 1-1004, looked up)
chain: MWEKMETKTIVYDLDTSGGLMEQIQALLAPPKTDEAEKRSRKPEKEPRRSGRATNHDSCDSCKEGGDLLCCDHCPAAFHLQCCNPPLSEEMLPPGEWMCHRCTVRRKKREQKKELGHVNGLVDKSGKRTTSPSSDTDLLDRSASKTELKAIAHARILERRASRPGTPTSSASTETPTSEQNDVDEDIIDVDEEPVAAEPDYVQPQLRRPFELLIAAAMERNPTQFQLPNELTCTTALPGSSKRRRKEETTGKNVKKTQHELDHNGLVPLPVKVCFTCNRSCRVAPLIQCDYCPLLFHMDCLEPPLTAMPLGRWMCPNHIEHVVLNQKNMTLSNRCQVFDRFQDTVSQHVVKVDFLNRIHKKHPPNRRVLQSVKRRSLKVPDAIKSQYQFPPPLIAPAAIRDGELICNGIPEESQMHLLNSEHLATQAEQQEWLCSVVALQCSILKHLSAKQMPSHWDSEQTEKADIKPVIVTDSSVTTSLQTADKTPTPSHYPLSCPSGISTQNSLSCSPPHQSPALEDIGCSSCAEKSKKTPCGTANGPVNTEVKANGPHLYSSPTDSTDPRRLPGANTPLPGLSHRQGWPRPLTPPAAGGLQNHTVGIIVKTENATGPSSCPQRSLVPVPSLPPSIPSSCASIENTSTLQRKTVQSQIGPPLTDSRPLGSPPNATRVLTPPQAAGDGILATTANQRFSSPAPSSDGKVSPGTLSIGSALTVPSFPANSTAMVDLTNSLRAFMDVNGEIEINMLDEKLIKFLALQRIHQLFPSRVQPSPGSVGTHQLASGGHHIEVQRKEVQARAVFYPLLGLGGAVNMCYRTLYIGTGADMDVCLTNYGHCNYVSGKHACIFYDENTKHYELLNYSEHGTTVDNVLYSCDFSEKTPPTPPSSIVAKVQSVIRRRRHQKQDEEPSEEAAMMSSQAQGPQRRPCNCKASSSSLIGGSGAGWEGTALLHHGSYIKLGCLQFVFSITEFATKQPKGDASLLQDGVLAEKLSLKPHQGPVLRSNSVP
notes: PHF12, human, full-length; subunit of the SIN3B^FL sample; also called plant homeodomain (PHD) containing protein PHF12; source: High Five insect cells, co-infected with baculoviruses of each subunit; co-purified (Strep-Tactin, GSTrap, Superose 6 SEC)
As for B1, the “stoichiometry N” value in experiment [1], in experiment [2] and in experiment [3] was 1 throughout.

B2: PHF12^ΔC-terminus (residues 1-502) (domain or fragment, human, UniProt Q96QT6 1-502, looked up)
chain: MWEKMETKTIVYDLDTSGGLMEQIQALLAPPKTDEAEKRSRKPEKEPRRSGRATNHDSCDSCKEGGDLLCCDHCPAAFHLQCCNPPLSEEMLPPGEWMCHRCTVRRKKREQKKELGHVNGLVDKSGKRTTSPSSDTDLLDRSASKTELKAIAHARILERRASRPGTPTSSASTETPTSEQNDVDEDIIDVDEEPVAAEPDYVQPQLRRPFELLIAAAMERNPTQFQLPNELTCTTALPGSSKRRRKEETTGKNVKKTQHELDHNGLVPLPVKVCFTCNRSCRVAPLIQCDYCPLLFHMDCLEPPLTAMPLGRWMCPNHIEHVVLNQKNMTLSNRCQVFDRFQDTVSQHVVKVDFLNRIHKKHPPNRRVLQSVKRRSLKVPDAIKSQYQFPPPLIAPAAIRDGELICNGIPEESQMHLLNSEHLATQAEQQEWLCSVVALQCSILKHLSAKQMPSHWDSEQTEKADIKPVIVTDSSVTTSLQTADKTPTPSHYPLSCPSGIST
notes: PHF12, human, residues 1-502; lacks the poorly conserved and unstructured C-terminus; subunit of the SIN3B complex sample; also called PHF12^∆C-terminus; PHF12 residues 1-502; source: High Five insect cells, co-infected with baculoviruses of each subunit; co-purified (Strep-Tactin, GSTrap, Superose 6 SEC)
Take B2: in experiment [4], the binding result is listed as “binds”. In the case of B3, the “stoichiometry N” value in experiment [1] was 1.

As usually defined, the stoichiometry N is a count of units in the complex or per binding partner.

For the origin of these results see publication PMC10156912, “Mechanism of assembly, activation and lysine selection by the SIN3B histone deacetylase complex” (Nature Communications, 2023).
